In the supplement of paper PMC5998384:

Legend:
[1] = test system: HeLa Kyoto; test: solubility in G1/S (NP-40 vs SDS abundance) (log2 ratio); higher = more soluble; conditions: cell cycle stage: G1/S
[2] = test system: HeLa Kyoto; test: melting temperature (median over replicates), in situ; higher = more thermally stable
[3] = test system: HeLa Kyoto; test: solubility change mitosis vs G1/S (difference of NP-40 vs SDS log2 ratios) (log2 ratio difference); higher = more soluble in mitosis
[4] = test system: HeLa Kyoto; test: thermal stability score vs G1/S (z-score of summed log2 fold changes over temperatures); higher = more thermally stable than in G1/S
[5] = cell cycle stage: early G1 (4.5 h after nocodazole release)
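Wherever melting temperature (median over replicates), in situ is given: HeLa Kyoto cells synchronized by double thymidine or nocodazole block, proteins quantified by TMT10plex mass spectrometry, three independent biological replicates.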
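Wherever solubility change mitosis vs G1/S (difference of NP-40 vs SDS log2 ratios) is given: synchronized HeLa Kyoto cells (double thymidine block for G1/S, nocodazole release for mitosis), protein amounts in NP-40 versus SDS lysates quantified by mass spectrometry, three biological replicates.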
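Wherever solubility in G1/S (NP-40 vs SDS abundance) is given: HeLa Kyoto cells arrested at G1/S by double thymidine block, proteins quantified by TMT10plex mass spectrometry in mild NP-40 versus SDS extracts, three biological replicates.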
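Wherever thermal stability score vs G1/S (z-score of summed log2 fold changes over temperatures) is given: synchronized HeLa Kyoto cells, proteins quantified by TMT10plex mass spectrometry, three biological replicates, mitosis taken 0.5 h after nocodazole release, G1/S directly after double thymidine block.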

Substance | solubility in G1/S (log2) [1] | melting temperature ([2]; cell cycle stage: G1/S) | melting temperature ([2]; cell cycle stage: mitosis) | solubility change mitosis (log2) [3] | thermal stability score [4, 5] | thermal stability score ([4]; cell cycle stage: mitosis)
LAMB2 | 0.034 | 53 °C | 53.9 °C | -0.116 | 2.43 | 3.75
MADPWQECMDYAVTLARQAGEVVCEAIKNEMNVMLKSSPVDLVTATDQKVEKMLISSIKEKYPSHSFIGEESVAAGEKSILTDNPTWIIDPIDGTTNFVHRFPFVAVSIGFAVNKKIEFGVVYSCVEGKMYTARKGKGAFCNGQKLQVSQQEDITKSLLVTELGSSRTPETVRMVLSNMEKLFCIPVHGIRSVGTAAVNMCLVATGGADAYYEMGIHCWDVAGAGIIVTEAGGVLMDVTGGPFDLMSRRVIAANNRILAERIAKEIQVIPLQRDDED [IMPA1] | 0.0966 | 59.9 °C | 61.1 °C | -0.19 | -1.12 | -2.39
MNPTLILAAFCLGIASATLTFDHSLEAQWTKWKAMHNRLYGMNEEGWRRAVWEKNMKMIELHNQEYREGKHSFTMAMNAFGDMTSEEFRQVMNGFQNRKPRKGKVFQEPLFYEAPRSVDWREKGYVTPVKNQGQCGSCWAFSATGALEGQMFRKTGRLISLSEQNLVDCSGPQGNEGCNGGLMDYAFQYVQDNGGLDSEESYPYEATEESCKYNPKYSVANDTGFVDIPKQEKALMKAVATVGPISVAIDAGHESFLFYKEGIYFEPDCSSEDMDHGVLVVGYGFESTESDNNKYWLVKNSWGEEWGMGGYVKMAKDRRNHCGIASAASYPTV [CTSL] | -0.176 | 53.9 °C | 55 °C | 0.0996 | 1.47 | 1.22
MAGPELLLDSNIRLWVVLPIVIITFFVGMIRHYVSILLQSDKKLTQEQVSDSQVLIRSRVLRENGKYIPKQSFLTRKYYFNNPEDGFFKKTKRKVVPPSPMTDPTMLTDMMKGNVTNVLPMILIGGWINMTFSGFVTTKVPFPLTLRFKPMLQQGIELLTLDASWVSSASWYFLNVFGLRSIYSLILGQDNAADQSRMMQEQMTGAAMAMPADTNKAFKTEWEALELTDHQWALDDVEEELMAKDLHFEGMFKKELQTSIF [EMC3] | -0.174 | 54.1 °C | 53.7 °C | -0.25 | -0.437 | -0.599
MAAAAAAAVAGVGRGGGGAEPRQERSRARGWAGVERSEGRRMEPGEELEEEGSPGGREDGFTAEHLAAEAMAADMDPWLVFDARTTPATELDAWLAKYPPSQVTRYGDPGSPNSEPVGWIAVYGQGYSPNSGDVQGLQAAWEALQTSGRPITPGTLRQLAITHHVLSGKWLMHLAPGFKLDHAWAGIARAVVEGQLQVAKVSPRAKEGGRQVICVYTDDFTDRLGVLEADSAIRAAGIKCLLTYKPDVYTYLGIYRANRWHLCPTLYESRFQLGGSARGSRVLDRANNVELT [C11ORF68] | 0.585 | 51.6 °C | 51.9 °C | -0.0653 | 0.634 | -0.663
